Positions count from the first letter of the chain named. Where “and” joins values, the source holds several entries; their conditions need not be identical. Equal values may be shown once. Read-outs that look alike come from different tables or passages of the source. Each block holds one binder with its values, some of them ahead of it.
How the values were obtained:
[1] = molecular target: T1, recombinant cynomolgus CFD, His-tagged (cynomolgus); assay: SPR MX96
T1 construct: also called rcyCFD-His; recombinant Cyno-CFD

[2] = molecular target: T2, recombinant human CFD, His-tagged (human, UniProt P00746 26-253); assay: SPR MX96
T2 construct: also called rhCFD-His
T2 sequence (P00746 26-253 limits assumed): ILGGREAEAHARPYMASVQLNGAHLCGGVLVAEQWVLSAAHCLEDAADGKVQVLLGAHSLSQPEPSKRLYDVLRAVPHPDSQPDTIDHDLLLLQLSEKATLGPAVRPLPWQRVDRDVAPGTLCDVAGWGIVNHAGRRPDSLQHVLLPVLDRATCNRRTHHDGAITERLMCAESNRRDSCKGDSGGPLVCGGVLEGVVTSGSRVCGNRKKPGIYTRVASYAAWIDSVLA

[3] = molecular target: T3, human complement factor D purified from serum (human, UniProt P00746 26-253); assay: SPR MX96
T3 construct: serum-purified (CompTech); also called hCFD-Comptech; CFD
T3 sequence (P00746 26-253): as the sequence (P00746 26-253 limits assumed) above

[4] = molecular target: T4, recombinant human CFD mutant 1 (R157A, R207A), His-tagged (human, UniProt P00746 26-253); assay: ELISA, Mut1 Binding, Bin 2
T4 construct: positions are linear positions in the mature protein; also called rhCFD-mut1-His; Mut1
T4 sequence (P00746 26-253 R182A/R232A limits assumed): as the sequence (P00746 26-253 limits assumed) above, with R157A, R207A counted along it

[5] = molecular target: T4, recombinant human CFD mutant 1 (R157A, …); assay: ELISA
[6] = molecular target: T3, human complement factor D purified from …; assay: cell-based or functional assay
[7] = molecular target: T3, human complement factor D purified from …
[8] = molecular target: T5, human Complement Factor D (serum purified) (human, UniProt P00746 26-253); assay: KinExA in solution, 37 degrees; free CFD captured on OG1931 beads and detected with KCD004-A647
T5 construct: also called CFD; FD
T5 sequence (P00746 26-253): as the sequence (P00746 26-253 limits assumed) above

[9] = molecular target: T5, human Complement Factor D (serum …); assay: SPR (Biacore), antibody captured on Protein A chip, serum purified human CFD as analyte, 25 degrees
[10] = molecular target: T5, human Complement Factor D (serum …); assay: cell-based or functional assay
[11] = molecular target: T6, serum purified human Complement Factor D (human, UniProt P00746 26-253); assay: SPR Biacore, antibody on protein A chip, single cycle kinetics, 37 C
T6 construct: Serum purified protein flowed over the captured antibodies; also called CFD; human CFD
T6 sequence (P00746 26-253): as the sequence (P00746 26-253 limits assumed) above

[12] = molecular target: T6, serum purified human Complement Factor D; assay: SPR Biacore, 25 C
[13] = molecular target: T6, serum purified human Complement Factor D; assay: SPR Biacore, 37 C
[14] = molecular target: T6, serum purified human Complement Factor D; assay: SPR Biacore, 25 C; remark: listed apart in the source
[15] = molecular target: T6, serum purified human Complement Factor D; assay: SPR Biacore, 37 C; remark: listed apart in the source
[16] = molecular target: T6, serum purified human Complement Factor D; assay: SPR Biacore, antibody on protein A chip, single cycle kinetics, 25 C
[17] = molecular target: T6, serum purified human Complement Factor D; assay: SPR Biacore, antibody on protein A chip, single cycle kinetics, 37 C; remark: listed apart in the source
[18] = molecular target: T6, serum purified human Complement Factor D; assay: SPR Biacore, antibody on protein A chip, single cycle kinetics, 25 C; remark: listed apart in the source
[19] = molecular target: T7, recombinant cynomologus Complement Factor D (cynomolgus); assay: SPR Biacore, antibody on protein A chip, cyCFD in flow, single cycle kinetics, 37 C
T7 construct: also called cyCFD; cyno CFD

[20] = molecular target: T6, serum purified human Complement Factor D; assay: SPR Biacore T200, biotinylated OG1965 captured on neutravidin CM5 chip, single cycle kinetics, 37 C
[21] = molecular target: T6, serum purified human Complement Factor D; assay: SPR Biacore T200, biotinylated OG1965 captured on neutravidin CM5 chip, single cycle kinetics, 25 C
[22] = molecular target: T5, human Complement Factor D (serum …); assay: SPR (Biacore), conjugate captured on Protein A chip, serum purified human CFD as analyte, 25 degrees
Wherever CFD Enzymatic activity (% of Neg Ctrl) is given: test concentration or dose not given here.

B1: KCD010 (antibody, V domains shown)
VH: EVLLQQSGPELVKPGASVKIPCKASGYTFTDYDMDWVKQSHGKSLEWIGHINPNNGGTIYNQKFKGKATLTVDKSSSTAYMELRSLTSEDTAVYYCGTGDFAYWGHGTLVTVSA
VL: QIVLTQSPAIMSVSPGEKVTLTCSASSSVSSSYLYWYQKKPGSSPKLWIYSTSNLASGVPARFSGSGSGTSYSLTISSMEAEDAASYFCHQWSSYPPTFGAGTKLELK
notes: chimeric
Kd [1]: 2.9 nM | Kd [2]: 2.5 nM | Kd [3]: 3.1 nM | binding result [4]: no binding | Mut1 Binding (% wt) [5]: 3.77 % wt | CFD Enzymatic activity (% of Neg Ctrl) [6]: 49.4 % of Neg Ctrl | Kd [7]: 1.46 nM

B3: 31S54I59D / 54R101V (antibody, V domains shown)
VH: EVQLVESGGGLVQPGGSLRLSCAASGYTFTSYYMNWVRQAPGKGLEWIGDINPITGDTDYNADFKRRFTFSLDTSKSTAYLQMNSLRAEDTAVYYCTREGPSFAYWGQGTLVTVSS
VL: DIQLTQSPSSLSASVGDRVTITCRSSQTIVHSNGDTYLEWYQQKPGKAPNLLIRKVSNRFSGVPSRFSGSGSGTDFTLTISSLQPEDFATYYCFQGSHVPVTFGQGTKVEIKR
notes: KCD119 TAF variant
Kd [11]: 0.00605 nM and 0.00691 nM and 0.00817 nM | koff [11]: 0.00021 s⁻¹ and 0.000214 s⁻¹ and 0.000227 s⁻¹ | kon [11]: 3.48e+07 M⁻¹ s⁻¹ and 3.09e+07 M⁻¹ s⁻¹ and 2.78e+07 M⁻¹ s⁻¹ | Kd [12]: 0.00836 nM | koff [12]: 0.00012 s⁻¹ | kon [12]: 1.44e+07 M⁻¹ s⁻¹ | Kd [13]: 0.00817 nM | koff [13]: 0.000227 s⁻¹ | kon [13]: 2.78e+07 M⁻¹ s⁻¹ | Kd [14]: 0.00366 nM | koff [14]: 5.12e-05 s⁻¹ | kon [14]: 1.4e+07 M⁻¹ s⁻¹ | Kd [15]: 0.00691 nM | koff [15]: 0.000214 s⁻¹ | kon [15]: 3.09e+07 M⁻¹ s⁻¹ | Kd [16]: 0.00779 nM and 0.00366 nM and 0.00836 nM | koff [16]: 7.94e-05 s⁻¹ and 5.12e-05 s⁻¹ and 0.00012 s⁻¹ | kon [16]: 1e+07 M⁻¹ s⁻¹ and 1.4e+07 M⁻¹ s⁻¹ (2×)

B4: 34I54I59D84S / 54R101V (antibody, human IgG1, V domains shown)
VH: B3 VH with S31D, M34I, N84S
VL: B3 VL
notes: Human IgG1 kappa; also called OG1965
Kd [11]: 0.00504 nM | koff [11]: 0.000202 s⁻¹ | kon [11]: 4e+07 M⁻¹ s⁻¹ | Kd [17]: 0.00504 nM | koff [17]: 0.000202 s⁻¹ | kon [17]: 4e+07 M⁻¹ s⁻¹ | Kd [18]: 0.00437 nM | koff [18]: 9.02e-05 s⁻¹ | kon [18]: 2.06e+07 M⁻¹ s⁻¹ | Kd [19]: 0.028 nM | koff [19]: 0.000978 s⁻¹ | kon [19]: 3.49e+07 M⁻¹ s⁻¹ | Kd [20]: 0.00956 nM | koff [20]: 0.000241 s⁻¹ | kon [20]: 2.55e+07 M⁻¹ s⁻¹ | Kd [21]: 0.00364 nM | koff [21]: 5.08e-05 s⁻¹ | kon [21]: 1.4e+07 M⁻¹ s⁻¹ | Kd [16]: 0.00437 nM | koff [16]: 9.02e-05 s⁻¹ | kon [16]: 2.06e+07 M⁻¹ s⁻¹

B5: 31S54I59D84S / 54R101V (antibody, V domains shown)
VH: B3 VH with N84S
VL: B3 VL
notes: also called 31554159D845 / 54R101V
Kd [11]: 0.00613 nM | koff [11]: 0.000174 s⁻¹ | kon [11]: 2.84e+07 M⁻¹ s⁻¹ | Kd [14]: 0.00613 nM | koff [14]: 9.14e-05 s⁻¹ | kon [14]: 1.49e+07 M⁻¹ s⁻¹ | Kd [15]: 0.00613 nM | koff [15]: 0.000174 s⁻¹ | kon [15]: 2.84e+07 M⁻¹ s⁻¹ | Kd [16]: 0.00613 nM | koff [16]: 9.14e-05 s⁻¹ | kon [16]: 1.49e+07 M⁻¹ s⁻¹

B6: KCD122 (antibody, V domains shown)
VH: EVQLQQSGPELVKPGASVKISCKASGYTFTDYYKNWMRQRHGESLEWIGDINPNNGDANYNQKFKGKATLTVDKSSSTAYMELRSLTSEDSAVYFCAREGPSFAYWGHGTLVTVSA
VL: DVLMTQTPLSLPVSLGDQASISCRSSQTIVHSNGDTYLEWYLQKPGQSPNLLIYKVSNRFSGVPDRFSGSGSGTDFTLKISRVEAEDLGVYYCFQGSHVPPTFGGGTKLEIK
notes: chimeric
Kd [1]: 1.9 nM | Kd [2]: 0.95 nM | Kd [3]: 1.4 nM | binding result [4]: no binding | Mut1 Binding (% wt) [5]: 2.25 % wt | CFD Enzymatic activity (% of Neg Ctrl) [6]: 17.3 % of Neg Ctrl | Kd [7]: 0.162 nM

B7: KCD005 (antibody, V domains shown)
VH: EVQLQQSGPELVKPGASVKISCKASGYTFTDHYMNWVKQSHGKSLEWIGDINPNNGGTSCNQKFKGKATLTVDKSSSTAYMELRSLTSGDSAVYYCTREGASFAFWGQGTLVTVSA
VL: B6 VL with T28S, N50K, P101V, G105A, I111L
notes: chimeric
Kd [1]: 2.3 nM | Kd [2]: 1.2 nM | Kd [3]: 1.4 nM | binding result [4]: no binding | Mut1 Binding (% wt) [5]: 1.79 % wt | CFD Enzymatic activity (% of Neg Ctrl) [6]: 49.2 % of Neg Ctrl | Kd [7]: 0.726 nM

B8: KCD118 (antibody, V domains shown)
VH: B6 VH with S25F, N55S, F95Y
VL: B6 VL with V90I
notes: chimeric
Kd [1]: 1.3 nM | Kd [2]: 0.54 nM | Kd [3]: 0.76 nM | binding result [4]: no binding | Mut1 Binding (% wt) [5]: 0.762 % wt | CFD Enzymatic activity (% of Neg Ctrl) [6]: 14 % of Neg Ctrl | Kd [7]: 0.0883 nM

B10: KCD003 (antibody, V domains shown)
VH: EVQLQQSRPELVKPGASVKIFCKASGYTFTDYYMNWMRQRHGETLEWIGDINPNNGDPSYNQKFKDKATLTVDKSSSTASMELRSLTSDDSAVYYCAREGPSFAYWGQGTLVTVSA
VL: B6 VL with D17E
notes: chimeric
Kd [1]: 1.8 nM | Kd [2]: 0.81 nM | Kd [3]: 1.1 nM | binding result [4]: no binding | Mut1 Binding (% wt) [5]: 1.53 % wt | CFD Enzymatic activity (% of Neg Ctrl) [6]: 19.6 % of Neg Ctrl | Kd [7]: 0.318 nM

The next lines start with results.

Kd [8]: 0.00586 nM | kon [8]: 3.06e+07 M⁻¹ s⁻¹ | Kd [9]: 0.0025 nM | kon [9]: 2.52e+07 M⁻¹ s⁻¹
B2: OG1965 (antibody, IgG1, V domains shown)
VH: B3 VH with S31D, M34I, N84S
VL: B3 VL
notes: also called 34I54I59D84S/54R101V; 34I54I59D84S (heavy) / 54R101V (light)
EC50 (nM) in hemolysis assay (rabbit RBC, normal human serum) [10]: 1.74 nM

Kd [1]: 2.9 nM | Kd [2]: 1.3 nM | Kd [3]: 1.8 nM | binding result [4]: no binding | Mut1 Binding (% wt) [5]: 0.602 % wt | CFD Enzymatic activity (% of Neg Ctrl) [6]: 16.7 % of Neg Ctrl | Kd [7]: 0.293 nM
B9: KCD121 (antibody, V domains shown)
VH: B6 VH with A58T, N59S, K65R, Y80F, F95Y, H108Q
VL: B6 VL with S26N, K79R
notes: chimeric

Kd [1]: 2.9 nM | Kd [2]: 1.3 nM | Kd [3]: 2.8 nM | binding result [4]: no binding | Mut1 Binding (% wt) [5]: 2.91 % wt | CFD Enzymatic activity (% of Neg Ctrl) [6]: 18.7 % of Neg Ctrl | Kd [7]: 0.277 nM
B11: KCD123 (antibody, V domains shown)
VH: B6 VH with Q3H, Y32F, D57G, A58T, F95Y, H108Q
VL: B6 VL
notes: chimeric

Kd [8]: 0.00807 nM | kon [8]: 3.67e+07 M⁻¹ s⁻¹ | Kd [22]: 0.00614 nM | kon [22]: 2.16e+07 M⁻¹ s⁻¹
B12: OG1970 (other)
heavy: EVQLVESGGGLVQPGGSLRLSCAASGYTFTDYYINWVRQAPGKGLEWIGDINPITGDTDYNADFKRRFTFSLDTSKSTAYLQMSSLRAEDTAVYYCTREGPSFAYWGQGTLVTVSSASTKGPSVFPLAPSSKSTSGGTAALGCLVKDYFPEPVTVSWNSGALTSGVHTFPAVLQSSGLYSLSSVVTVPSSSLGTQTYICNVNHKPSNTKVDKKVEPKSCDKTHTCPPCPAPEAAGAPSVFLFPPKPKDTLMISRTPEVTCVVVDVSHEDPEVKFNWYVDGVEVHNAKTKPREEQYNSTYRVVSVLTVLHQDWLNGKEYKCKVSNKALPAPIEKTISKAKGQPREPQVYTLPPSREEMTKNQVSLTCLVKGFYPSDIAVEWESNGQPENNYKTTPPVLDSDGSFFLYSKLTVDKSRWQQGNVFSCSVMHEALHNHYTQKSLSCSPGK
light: DIQLTQSPSSLSASVGDRVTITCRSSQTIVHSNGDTYLEWYQQKPGKAPNLLIRKVSNRFSGVPSRFSGSGSGTDFTLTISSLQPEDFATYYCFQGSHVPVTFGQGTKVEIKRTVAAPSVFIFPPSDEQLKSGTASVVCLLNNFYPREAKVQWKVDNALQSGNSQESVTEQDSKDSTYSLSSTLTLSKADYEKHKVYACEVTHQGLSSPVTKSFNRGEC
modifications: polymer OG1802 (9-arm HEMA-PC polymer, about 750-800 kDa, maleimide) bonded through the sulfhydryl of C443 (EU numbering; 442C in SEQ ID NO: 183), on one of the heavy chains
notes: Antibody-polymer conjugate: decapped OG1965 conjugated to polymer OG1802; The stoichiometry of antibody to polymer is described as 1:1; also called OG1965 bioconjugate; OG1965 conjugated to polymer OG1802
EC50 (nM) in hemolysis assay (rabbit RBC, normal human serum) [10]: 1.65 nM

Reference: patent publication US20180334496A1 (KODIAK SCIENCES, published 2018)
